The values that follow come from the FLAb antibody collection.

One series is described as follows: melting temperature. The following applies: Circular dichroism. (CD spectra are sensitive to the conformation of chiral molecules.)
Regarding “ARVDOTPRTATKETGESLTINCVLTDTSYGLSSTYWYRKNPGSSNKEQISISGRYVESVNKRTKSFSLRIKDLTVADSATYICNAYIVRGVYGIIAKDVYGDGTALTVK”, the Tm amounted to 64 °C. On the same count and under the same terms, then “ARVEQTPRTATKETGESLTINCVLTGGSCSLYSTSWFRKNPGTTDWERISIGGRYVESVNKGAKSFSLRIKDLTVADSATYYCKAQSCMDSRTVVLDWYEGSGTVLTVK”, with 76 °C. On the same count and under the same terms, then “AWVDQTPRTATKETGESLTINCVLTGTSCSLYSTSWFRKNPGTTDWERISIGGRYVESVNKGAKSFSLRIKDLTVADSATYYCKAQTADTWITVVIDGYDWYDGAGTALTVK”, with 59 °C; and “DVQLQESGGGLVQPGGSLRLSCAASGFLFSDTYMTWARQAPGKGLEWLGGISKDGSGTLYEDSVEGRFTISRDNAKNTLYLQMNSLKSEDTALYYCSTGALLPTRPQGQGTQVTVSS”, with 51.5 °C; and “EVQLVESGGGLVQPGGSLRLSCAASGSTFSSSSVGWYRQAPGKGLELVSAITSGGSTNTADSVKGRFTISRDNSKNTLYLQMNSLRAEDTAVYYCNVAGRNWVPISRYSPGPYWGQGTLVTVSS”, with 63.3 °C. Same read-out and setting: the value for “EVQLVESGGGLVQPGGSLRLSCAASGSTFSSSSVGWYRQAPGKQRELVSAITSGGSTNTADSVKGRFTISRDNSKNTLYLQMNSLRAEDTAVYYCNVAGRNWVPISRYSPGPYWGQGTLVTVSS” was 60.9 °C. For the sequence “PRVEQTPRITTKETGESLTINCVLTGTSCNLWTATWFRKNPGTTDWERIRIGGRYVESVNKGAKSFSLRIKDLTVADSATYYCKVQFNLYCGEADWYDGAGTLLTVK”, the Tm was 66 °C.

Consider “QLQLVESGGGLVQAGGSLRLSCAASGRTFSSATMGWFRQAPGKEREFVAAISWSGLSRYYADSVKGRFTISRDNAENTVYLQMNSLKTEDTAVYYCAADSWGCSGLGCYDARQYDVWGQGTQVTVSS”, for which the Tm turned out to be 98.2 °C.

Still in this series, the particulars now being: DSF (SYPRO).
Regarding “DVQLQASGGGLVQAGGSLRLSCAASGSTFSIKHHGWYRRAPGNQREWVAGINSENITNVAGAVKGRFTISRDNAKNTVYLQMNSLKVEDTAVYFCYAQDNDYRFLHRFWGQGTQVTVSLEPKTPKPQ”, the Tm amounted to 52 °C.

With “DVQLVESGGGSVQAGGSLRLSCAASGYIASINYLGWFRQAPGKEREGVAAVSPAGGTPYYADSVKGRFTVSLDNAENTVYLQMNSLKPEDTALYYCAAARQGWYIPLNSYGYNYWGQGTQVTVSS”, the Tm came out at 74 °C.

As for “EVQLQASGGGLVQAGSSLRLSCAASGLTTSTLYRMGWFRQAPGKEREFVGTITWSGGSTHYPDSLKGRFTISRDDAKNTGFLQMDSLKPEDTAIYYCAARTSAGIYDPTSPPAYDSWGQGTQVTVSS”, the Tm came out at 70 °C.

Regarding “EVQLQASGGGLVQPGGSLRLACVASGFTLEYSAIGWFRQAPGKEREAVSRIRNRDGRAIYADSVKDRFTISRDNAKSTVYLQMDSLKPEDTATYYCGRHIGVRSSWALPSEYDYWGQGTQYIYSS”, the Tm was 60 °C. The same measure, in the same setting: then “EVQLQASGGGLVQPGGSLRLSCTASGSIFSINAMGWYRQTPRKERELVAAISEGGSTKYGDSVKGRFTISRDFAKNTQMVYLQMNSLKAEDTAVYYCKAQTEGPIADWGTSQYEYWGQGTQVTVSS”, with 51 °C. Consider “GPHMAQVQLVESGGRLVQAGDSLRLSCAASGRTFSTSAMAWFRQAPGREREFVAAITWTVGNTILGDSVKGRFTISRDRAKNTVDLQMDNLEPEDTAVYYCSARSRGYVLSVLRSVDSYDYWGQGTQVTVS”, for which the Tm is 53.6 °C. Same read-out and setting: then “KVQLVESGGGLVQAGGSLRLACTASGSAFSINTMGWYRRAPGKQRELVASITSSGSTTYADSVKGRFTISRDSAKNTVFLQMNSVKPEDTSVYYCNGEIQRTDYNFWGQGTQVTVSS”, with 59.6 °C; and “QVKLEESGGGLVQAGGSLRLSCAASERTFSRYPVAWFRQAPGAEREFVAVISSTGRSTYYADSVKGRFTISRDNAKVTVYLQMNNLKREDTAVYFCAVNSKRRRLQDPNEYDYWGQGTQVTVSSGSEQKLISEEDLNHHHHHH”, with 81.6 °C. With “QVKLEESGGGLVQAGGSLRLSCAASERTFSRYPVAWFRQAPGAEREFVAVISSTGRSTYYADSVKGRFTISRDNAKVTVYLQMNNLKREDTAVYFCAVNSKRTRLQDPNEYDYWGQGTQVTVSSGSEQKLISEEDLNHHHHHH”, the Tm amounted to 81.4 °C.

As for “QVKLEESGGGLVQAGGSLRLSCAASERTFSRYPVAWFRQAPGAEREFVAVISSTGRSTYYADSVKGRFTISRDNAKVTVYLQMNNLKREDTAVYFCAVNSQRMRLQDPNEYDYWGQGTQVTVSSGSEQKLISEEDLNHHHHHH”, the Tm was 77 °C.

In the case of “QVKLEESGGGLVQAGGSLRLSCAASERTFSRYPVAWFRQAPGAEREFVAVISSTGTSKYYADSVKGRFTISRDNAKVTVYLQMNNLKREDTAVYFCAVNSQRTRLQDPNEYDYWGQGTQVTVSSGSEQKLISEEDLNHHHHHH”, the Tm stood at 76.9 °C. On the same count and under the same terms, then “QVKLEESGGGLVQAGGSLRLSCAASERTFSRYPVAWFRQAPGAEREFVAVISSTGTSTYYADSVKGRFTISRDNAKVTVYLQMNNLKREDTAVYFCAVNSKRKRLQDPNEYDYWGQGTQVTVSSGSEQKLISEEDLNHHHHHH”, with 81.5 °C; and “QVKLEESGGGLVQAGGSLRLSCAASERTFSRYPVAWFRQAPGAEREFVAVISSTGTSTYYADSVKGRFTISRDNAKVTVYLQMNNLKREDTAVYFCAVNSKRMRLQDPNEYDYWGQGTQVTVSSGSEQKLISEEDLNHHHHHH”, with 81.3 °C; and “QVKLEESGGGLVQAGGSLRLSCAASERTFSRYPVAWFRQAPGAEREFVAVISSTGTSTYYADSVKGRFTISRDNAKVTVYLQMNNLKREDTAVYFCAVNSKRRRLQDPNEYDYWGQGTQVTVSSGSEQKLISEEDLNHHHHHH”, with 81.9 °C. On the same count and under the same terms, the value for “QVKLEESGGGLVQAGGSLRLSCAASERTFSRYPVAWFRQAPGAEREFVAVISSTGTSTYYADSVKGRFTISRDNAKVTVYLQMNNLKREDTAVYFCAVNSKRTRLQDPNEYDYWGQGTQVTVSSGSEQKLISEEDLNHHHHHH” was 81.4 °C; that for “QVKLEESGGGLVQAGGSLRLSCAASERTFSRYPVAWFRQAPGAEREFVAVISSTGTSTYYADSVKGRFTISRDNAKVTVYLQMNNLKREDTAVYFCAVNSQRKRLQDPNEYDYWGQGTQVTVSSGSEQKLISEEDLNHHHHHH” was 78.5 °C. As to “QVKLEESGGGLVQAGGSLRLSCAASERTFSRYPVAWFRQAPGAEREFVAVISSTGTSTYYADSVKGRFTISRDNAKVTVYLQMNNLKREDTAVYFCAVNSQRMRLQDPNEYDYWGQGTQVTVSSGSEQKLISEEDLNHHHHHH”, the Tm stood at 77.4 °C.
